Publication PMC2963451

B1: JL943 (ssRNA)
RNA: AGCUGCUUUUUGCCUGUACU
B2: JL936 (ssDNA)
DNA: AGCTGCTTTTTGCCTGTACT

Biological target: Gag (GagΔp6) (HIV-1 BH10, UniProt P03347 1-447)
Experiment: fluorescence anisotropy

Binder | Kd [nM]
B1 | 8
B2 | 9
